# Patent US5874308A, “Compositions and methods for modulating cell proliferation using growth factor-polysaccharide binding fusion proteins” (priority 1996, dated 1999)
# “Also recorded” adds a separate entry of the source.
# T1: N1 (CBDN1) (Cellulomonas fimi, UniProt P14090)
# T1 construct: leader (signal) peptide of C. fimi exoglucanase Cex (N); made in house; host or cells: E. coli JM101 (pTugKN1), purified from culture supernatant
# T1 sequence (P14090 33-184): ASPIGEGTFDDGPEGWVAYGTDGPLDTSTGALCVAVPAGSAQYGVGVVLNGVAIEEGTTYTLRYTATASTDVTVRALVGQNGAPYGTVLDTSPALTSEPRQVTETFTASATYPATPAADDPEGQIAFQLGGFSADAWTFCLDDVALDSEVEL
# T2: CBDN1 (Cellulomonas fimi, UniProt P14090)
# T2 construct: leader (signal) peptide of C. fimi exoglucanase Cex (N); made in house; host or cells: E. coli JM101 (pTugKN1), purified from culture supernatant
# T2 sequence (P14090 33-184): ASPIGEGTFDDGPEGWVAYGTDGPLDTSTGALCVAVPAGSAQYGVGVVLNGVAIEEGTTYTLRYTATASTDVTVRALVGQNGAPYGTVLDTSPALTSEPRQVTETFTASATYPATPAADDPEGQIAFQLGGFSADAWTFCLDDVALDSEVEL
# Tests used:
# N1 (CBDN1) = target: T1, N1 (CBDN1); assay: N1 binding constants by NMR; details: 35° C.; read-out: NMR Ka (converted)
# CBDN1 = target: T2, CBDN1; assay: Isothermal titration microcalorimetry of oligosaccharide binding to CBDN1; details: 35° C.; for Kd: 50-mM PBS, pH 7, read-out: Isothermal Titration Microcalorimetry Ka (converted)
# From the text: Microcalorimetry was used to measure binding thermodynamics for CBDN1 to a wide range of water-soluble oligosaccharides with the aim of identifying a set of suitable ligands for the affinity partition system. […] For both oligosaccharides, CBDN1 binding is as tight or even tighter than nearly all PEG-based affinity ligands (e.g., Cibacron blue-PEG, Procion red-PEG, dinitrophenyl-PEG, diacetic acid-PEG) currently in use in affinity partition systems.
# [1] = test system: SLF dependent bone marrow cell line B6SUtA1; assay: MTT proliferation assay of SLF-CBD in solution or bound to BMCC; assay type: cell-based; details: for effect of presence of BMCC on activity: protein concentration varied; for distribution of activity between BMCC and supernatant: bound to 1 μg/ml BMCC, matrix removed by centrifugation and resuspended; for potency when immobilized on cellulose vs in solution (maximum proliferative response, specific activity): immobilized on cellulose (BMCC); for distribution of activity between BMCC and supernatant after Factor Xa cleavage: 1 μg/ml BMCC, Factor Xa added; for proliferative activity in solution (MTT), compared with control SLF: non-immobilized, absence of an immobilization matrix
# Description: Samples of purified SLF-CBD were diluted in H-SFM. […] In experiments where BMCC was used, 50 μl of a BMCC suspension in H-SFM was added to each well, and in experiments where no BMCC was used 50 μl of H-SFM alone was added.
# Statistical analysis of data was carried out with regression curve fitting in two iterations using non-linear regression analysis from the GraFit version 3.0 statistical analysis program (Erithacus Software Ltd., Staines, U.K.).
# [2] = Binding of SLF-CBD to Avicel cellulose during purification; details: affinity chromatography on Avicel
# Description: The plasmid pSLF/CBD 1.0 was transformed into E. coli JM101 (Yanisch-Perronet al. (1985) Gene 33: 103-119) for expression. Several colonies were scraped from a plate and used to inoculate a 5 ml test tube of Terrific Broth (Tartof and Hobbs, Bethesda Res. Lab. Focus 9: 12) containing […] kanamycin. This tube was incubated with shaking at 37° C. for four hours and then used to inoculate four flasks containing 500 ml of the same medium at 0.2% volume. These flasks were then incubated at 37° C. with shaking at 250 rpm until a cell culture optical density (OD550) […]. The cells were then induced by the addition of 0.1 mM IPTG and shifted to 30° C. with shaking at 100 rpm for a further eight hours. Cells were then harvested and the periplasmic proteins isolated by osmotic shock (Neu and Heppel (1965) J. Biol. Chem. 240: 3685-3692). Five mg of Avicel microcrystalline cellulose (FMC International, Cork, Ireland) was added to either 10 ml of culture supernatant or 1 ml of periplasmic extract and then removed by centrifugation. SDS-PAGE loading buffer was than added to the Avicel, which was then boiled for two minutes and loaded directly onto a gel for SDS-PAGE analysis (Laemmli, supra.) (FIG. 8A).
# B6SUtA cells = assay: Activity of SLF-CBD bound to regenerated cellulose coated microtiter plates (MTT); assay type: cell-based
# Description: A 1% (w/v) solution of cellulose acetate was prepared by adding one gram of cellulose acetate (Kodak Inc.) to 99 ml of acetic acid. One hundred μl of this solution was added to each well of the standard 96 well tissue culture plates used above, and the acetic acid allowed to evaporate. One hundred μl of 50 mM NaOH was then added to each well and left for 20 minutes to regenerate a cellulose surface. The NaOH was then poured out, and the wells rinsed three times with PBS. Three hundred μl of 70% (v/v) ethanol was then added to each well, the plate lid replaced, and the ethanol allowed to evaporate as a sterilization step.
# Activity tests were carried out as previously described except that a cellulose acetate derived surface was used to immobilize SLF/CBD instead of BMCC. Twenty μl protein test samples were put into cellulose coated wells. […] Activity was measured after 48 h of culture using the […] with data points collected in quadruplicate. […]
# Non-tagged SLF was used as a control. In one set of control experiments, SLF was added to cellulose coated tissue culture wells as before, the surface was seeded with fresh cells three times, and the proliferation measured. […] These surfaces were seeded with cells three times and the activity measured.
# [3] = BMCC fixed at 1 μg/ml or 14 μg/ml
molecule,measurement,setting,value
OC[C@H]1O[C@@H](O[C@H]2[C@H](O)[C@@H](O)[C@H](O[C@H]3[C@H](O)[C@@H](O)[C@H](O[C@H]4[C@H](O)[C@@H](O)[C@H](O[C@H]5[C@H](O)[C@@H](O)C(O)O[C@@H]5CO)O[C@@H]4CO)O[C@@H]3CO)O[C@@H]2CO)[C@H](O)[C@@H](O)[C@@H]1O (stereo partly shown) [Cellopentaose],Kd,N1 (CBDN1),29.4 µM
same,Isothermal Titration Microcalorimetry -TΔS°,CBDN1,0.86 ± 0.1 kcal/mol
same,Isothermal Titration Microcalorimetry ΔH°,CBDN1,-6.8 ± 0.2 kcal/mol
same,Kd,CBDN1,0.0559 mM
OC[C@H]1O[C@@H](O[C@H]2[C@H](O)[C@@H](O)[C@H](O[C@H]3[C@H](O)[C@@H](O)[C@H](O[C@H]4[C@H](O)[C@@H](O)[C@H](O[C@H]5[C@H](O)[C@@H](O)[C@H](O[C@H]6[C@H](O)[C@@H](O)C(O)O[C@@H]6CO)O[C@@H]5CO)O[C@@H]4CO)O[C@@H]3CO)O[C@@H]2CO)[C@H](O)[C@@H](O)[C@@H]1O (stereo partly shown) [Cellohexaose],Kd,N1 (CBDN1),19.6 µM
same,Isothermal Titration Microcalorimetry -TΔS°,CBDN1,0.79 ± 0.1 kcal/mol
same,Isothermal Titration Microcalorimetry ΔH°,CBDN1,-6.9 ± 0.2 kcal/mol
same,Kd,CBDN1,0.0397 mM
OC[C@H]1O[C@@H](O[C@H]2[C@H](O)[C@@H](O)[C@H](O[C@H]3[C@H](O)[C@@H](O)C(O)O[C@@H]3CO)O[C@@H]2CO)[C@H](O)[C@@H](O)[C@@H]1O (stereo partly shown) [Cellotriose],Kd,N1 (CBDN1),5560 µM
OC[C@H]1O[C@@H](O[C@H]2[C@H](O)[C@@H](O)[C@H](O[C@H]3[C@H](O)[C@@H](O)[C@H](O[C@H]4[C@H](O)[C@@H](O)C(O)O[C@@H]4CO)O[C@@H]3CO)O[C@@H]2CO)[C@H](O)[C@@H](O)[C@@H]1O (stereo partly shown) [Cellotetraose],Kd,N1 (CBDN1),238 µM
same,Isothermal Titration Microcalorimetry -TΔS°,CBDN1,1.4 ± 0.1 kcal/mol
same,Isothermal Titration Microcalorimetry ΔH°,CBDN1,-6.4 ± 0.2 kcal/mol
same,Kd,CBDN1,0.244 mM
"control SLF: recombinant extracellular domain of murine steel factor without affinity tag (R&D systems), positive control (protein) KEICGNPVTDNVKDITKLVANLPNDYMITLNYVAGMDVLPSHCWLRDMVIQLSLSLTTLLDKFSNISEGLSNYSIIDKLGKIVDDLVLCMEENAPKNIKESPKRPETRSFTPEEFFSIFNRSIDAFKDFMVASDTSDCVLSSTLGPEKDSRVSVTKPFMLPPVAASSLRNDSSSSNRKAAKAPEDSGLQ",effect of presence of BMCC on activity,[1]; [3],no effect
same,distribution of activity between BMCC and supernatant,[1],most of the activity was in the supernatant
same,distribution of activity between BMCC and supernatant,[1]; listed as non-tagged SLF control,most of the activity was associated with the supematant
same,"potency when immobilized on cellulose vs in solution (maximum proliferative response, specific activity)",[1],not observed
SLF-CBD: fusion protein: extracellular domain of murine steel factor linked to the cellulose binding domain of Cellulomonas fimi exoglucanase Cex (protein) KEICGNPVTDNVKDITKLVANLPNDYMITLNYVAGMDVLPSHCWLRDMVIQLSLSLTTLLDKFSNISEGLSNYSIIDKLGKIVDDLVLCMEENAPKNIKESPKRPETRSFTPEEFFSIFNRSIDAFKDFMVASDTSDCVLSSTLGPEKDSRVSVTKPFMLPPVAASSLRNDSSSSNRKAAKAPEDSGLQPTPTPTTPTPTPTTPTPTPTSGPAGCQVLWGVNQWNTGFTANVTVKNTSSAPVDGWTLTFSFPSGQQVTQAWSSTVTQSGSAVTVRNAPWNGSIPAGGTAQFGFNGSHTGTNAAPTAFSLNGTPCTVG,binding of the fusion protein to cellulose,[2],strong and difficult to reverse
same,fraction bound to reconstituted cellulose surface (activity on plate vs supernatant),B6SUtA cells; cellulose coated microtiter plate,essentially all
same,proliferative activity after repeated use of the same surface,B6SUtA cells; three consecutive rounds of 48 h cell culture,no loss in proliferative activity; also recorded: no loss of proliferative activity; also recorded: without loss of growth-stimulating activity
same,neutralization of activity by anti-SLF neutralizing polyclonal antibodies,"[1]; 0.6 nM SLF-CBD, in solution",neutralized
same,distribution of activity between BMCC and supernatant after Factor Xa cleavage,[1],the bulk of the activity was found in the supernatant
same,distribution of activity between BMCC and supernatant after Factor Xa cleavage,[1]; listed as SLF/CBD,the activity was no longer associated with the BMCC
same,SLF-CBD concentration at maximum stimulatory activity,[1]; BMCC constant at 1 μg/ml (1.22 cm^2/ml),about 2000 pM
same,ED50 (protein concentration for half maximal response) in presence vs absence of BMCC,[1]; [3],decrease
same,total cell proliferation in presence vs absence of BMCC,[1]; [3],increase
same,effect of presence of BMCC on activity,[1]; [3],clearly more active in the presence of BMCC
same,BMCC concentration at maximum activity,"[1]; SLF-CBD held constant at 1500 pM, BMCC varied",44 µg/mL
same,distribution of activity between BMCC and supernatant,[1],the bulk of the activity was associated with the BMCC; also recorded: most of the activity was associated with the BMCC particles
same,"potency when immobilized on cellulose vs in solution (maximum proliferative response, specific activity)",[1],significantly more potent; also recorded: to a greater extent than non-immobilized steel factor
same,"proliferative activity in solution (MTT), compared with control SLF",[1],similar
same,ED50 of soluble fusion protein vs control protein,[1]; soluble form,identical
same,maximum cell density generated vs control protein,[1]; soluble form,not quite as great
"CBD: recombinant cellulose binding domain of Cex, negative control (protein) SGPAGCQVLWGVNQWNTGFTANVTVKNTSSAPVDGWTLTFSFPSGQQVTQAWSSTVTQSGSAVTVRNAPWNGSIPAGGTAQFGFNGSHTGTNAAPTAFSLNGTPCTVG","proliferative activity in solution (MTT), compared with control SLF",[1],did not stimulate the proliferation
